From article PMC12661054 (2025)
Ends that are not written are not given here.

Assays:
[1] = molecular target: T1, GST-TOPBP1(BRCT0-2 1-290) WT (human, UniProt Q92547 1-290); assay: FP
T1 chain: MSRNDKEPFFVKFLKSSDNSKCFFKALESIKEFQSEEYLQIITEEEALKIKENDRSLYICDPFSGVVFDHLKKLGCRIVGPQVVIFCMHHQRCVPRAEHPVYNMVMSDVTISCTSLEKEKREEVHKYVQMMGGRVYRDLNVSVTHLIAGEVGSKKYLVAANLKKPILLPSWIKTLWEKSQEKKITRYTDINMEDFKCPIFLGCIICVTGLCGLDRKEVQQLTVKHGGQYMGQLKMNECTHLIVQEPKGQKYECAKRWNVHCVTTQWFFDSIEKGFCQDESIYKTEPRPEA

[2] = molecular target: GST-TOPBP1(BRCT0-2 1-290) K250E (human, UniProt Q92547 1-290, K250E); assay: FP

How did the Kd [1] turn out when fluorescein-GYGTSWLVPATPLASRSR (also: phosphothreonine at Thr1260, position in chain not mapped) [Flu-SLX4_pT1260] was run?
Its Kd is 3.29 µM.

What about the Kd [2] of the same binder?
The Kd was 3.55 µM.
